The test system of series [1] is KRas protein in SW1116 (KRas G12D). The series can be described thus: Western blot of KRas degradation in SW1116 cells. It is filed as cell-based. An excerpt: Cell lines used in this embodiment were SW1116 (KRas G12D), SW480 (KRas G12V) and H358 (KRas G12C), all of which came from ATCC and have item numbers of CCL-233, CCL-228 and CRL-5800 respectively. The treatment process of each cell was consistent with that described in the influence of administration time on degradation of KRas above.
A general note: A western blot detects proteins with antibodies after separation by electrophoresis.

Series [2] deals with HT29 cells. The series can be described thus: Flow cytometry of tumor cell targeting, HT29. Format: cell-based, human. The following applies: tested as 60 nM TKD-Cy5, 1 hour, Lys 05 10 μM. The procedure: (§1) Wherein, the protein C18 column (25 cm×10 mm) was used, with sample injection of 2×400 μL each time, and gradient elution was carried out for 30 minutes, 0.1% TFA (trifluoroacetic acid) solution to MeCN (acetonitrile): H2O (0.1% TFA)=70:30, and a flow rate was 4 mL/min. • (4) Target color tape peaks were collected, and the retention time of a labeled polypeptide was longer than that of an unlabeled polypeptide. • (5) The TKD-Cy5 molecule was diluted to 60 μM, and stored in a PBS solution, and kept in the dark at −20° C. 2. […] The cells were treated with corresponding drugs, namely, in the experimental groups, the cells were treated with 60 nM TKD-Cy5 coupling molecule, and in the control groups, the cells were treated with the Cy5 single molecule with corresponding concentration. The lysosome inhibitor Lys 05 with the final concentration of 10 μM was added into the control groups and the experimental groups at the same time, and the final volume of the culture solution in each well was 1 mL. […] The cells were resuspended with the PBS buffer solution, and centrifuged again, and the supernatant was discarded. The operation was repeated for three times. Finally, the cleaned cells were resuspended in 0.2 mL of PBS, wrapped with foil paper, and then analyzed on the flow cytometer (company: BECKMAN COULTER; model: Cytoflex), with the fluorescence channel of APC-A.

The subject of series [3] is HCT116 cells. As to the kind of experiment: Flow cytometry of tumor cell targeting, HCT116. Conditions: tested as 60 nM TKD-Cy5, 1 hour, Lys 05 10 μM. Format: cell-based, human. On the procedure: as §1
In general terms: A flow cytometer gives signals particle by particle.

For series [4], the system named is KRas wild-type (HT29) colorectal cancer. As to the kind of experiment: In-vivo tumor formation experiment, HT29 subcutaneous tumor. On the set-up: species or system mice. Conditions: seven times. On the procedure: (§2) • (1) Balb/c nude mice, female, 4 weeks to 5 weeks old, purchased from Guangdong Laboratory Animal Center and raised in Laboratory Animal Center of Sun Yat-sen University, were used in this experiment. […] After counting, 7.5 million HT29 and HCT116 cells were taken respectively, washed twice with PBS, centrifuged at 300 g for 5 minutes after fishing each washing, and collected. • (3) The cell dilution buffer solution having the composition of PBS: matrix glue (Corning Company)=1:1 was prepared to resuspend the cells. […] In the experiment, the administration volume was 150 μL, the administration frequency was once every three days at a fixed time, and the administration was continued for seven times. • (6) After the administration, each mouse was injected with 150 μL of tribromoethanol, and then killed by cervical dislocation. […]
(§3) • (1) Balb/c nude mice, female, 4 weeks to 5 weeks old, purchased from Guangdong Laboratory Animal Center and raised in Laboratory Animal Center of Sun Yat-sen University, were used in this experiment. The experimental mice were divided into two groups, with five mice in each group, which were respectively a phosphate buffer solution (PBS) control group and a […]. • (2) The HT29 and HCT116 cells in the logarithmic phase were digested with pancreatin, the digestion was stopped with the complete culture solution, and then the cells were counted. […]

The subject of series [5] is HT29 (KRas wt). The series can be described thus: Cell clone formation experiment, HT29. Conditions: 10 and 20 μg/mL.
For series [6], the system named is normal intestinal epithelial cells FHC. As to the kind of experiment: Flow cytometry of tumor cell targeting, normal cells FHC. It is filed as cell-based, human. The following applies: tested as 60 nM TKD-Cy5, 1 hour, Lys 05 10 μM. The procedure:
as §1

In series [7] the test system is KRas mutant-type (HCT116) colorectal cancer. The series can be described thus: In-vivo tumor formation experiment, HCT116 subcutaneous tumor. On the set-up: species or system mice. The following applies: seven times. On the procedure:
as §2, §3

Series [8] deals with HCT116 (KRas G13D). As to the kind of experiment: Cell clone formation experiment, HCT116. Conditions: 10 and 20 μg/mL.
In series [9] the test system is signal pathway KRas/Raf/ERK/c-myc in KRas mutant-type cells HCT116. The series can be described thus: Western blot of EGFR downstream signal pathway, HCT116. Format: cell-based, human. The following applies: 10 and 20 μg/mL, 24 hours, compared with control TKDm. On the procedure: • (1) The colorectal cancer cells HCT116 (KRas G13D) and HT29 (KRas wt) were respectively spread in six-well plates, 500,000 cells per well. […] Then, the digestion was stopped with 1 mL of complete culture solution per well, the cell suspension was collected into a 1.5 mL EP tube, and centrifuged at the room temperature and 300 g for 3 minutes to collect cells. The cells were resuspended with 1 mL of PBS, and repeatedly centrifuged once. • (3) The supernatant was removed, 100 μL of lysate was added in each group (item number: P0013G; purchased from Beyotime Biotechnology Company). The cells were lysed on ice, vortically vibrated every 5 minutes, and centrifuged at 4° C. and 12,000 rpm for 30 minutes after being lysed for 30 minutes, and the supernatant was collected in a new 1.5 mL EP tube. • (4) The protein concentration was measured by the BCA method, and 20 μg of protein was taken from each group for SDS denaturation gel electrophoresis, transferred and blocked with 5% skim milk for 1 hour.

A short description of series [10]: Toxic and side effects in mice (body weight, HE histopathology). It is filed as in vivo. Conditions: 25 and 50 mg/kg intraperitoneal, seven times (3 weeks). The procedure:
• (1) Balb/c nude mice, female, 4 weeks to 5 weeks old, purchased from Guangdong Laboratory Animal Center and raised in Laboratory Animal Center of Sun Yat-sen University, were used in this experiment. […] The mice were administered once every three days at a fixed time. Meanwhile, changes in body state, mental state and weight of the mice were observed and recorded. • (3) After continuous administration for seven times (3 weeks), the mice were euthanized (killed by cervical dislocation). […] All the animal experiments were carried out within relevant regulations of animal ethics of Sun Yat-sen University.

[11] abbreviates: TKD 25 and 50 mg/kg intraperitoneal, once every three days, vs PBS.

Results on one molecule are retold here after patent US12508311B2, “Fusion protein, and preparation method and use thereof” (SUN YAT-SEN UNIVERSITY, priority 2021, dated 2025).

B1: TKD: fusion protein: tumour-cell-penetrating peptide BR2, anti-KRas nanobody VHH and lysosome recognition peptide CTM; SEQ ID NO.4 (protein)
chain: RAGLQFPVGRLLRRLLRDVQLQESGGGLVQAGGSLRLSCVASGRTFSTYPTGWFRQAPGKEREFVARINLSGGITNYADSVKGRFTISRDNAKNTVYLQMNSLKPEDTAVYYCGGGSTTWAGGIPTNFDYWGQGTQVTVSSGRKFERQKILDQRFFE
As to B1, in series [1], the “degradation of mutated KRas protein (western blot)” value is “could induce the degradation of the KRas proteins in different mutation states, and the degradation effect was remarkable”. Further, the “entry into cells (flow cytometry, Cy5 fluorescence)” value in series [2] is “could specifically recognize and pass through the cell membrane to enter the colorectal cancer cells”; in series [3], “could specifically recognize and pass through the cell membrane to enter the colorectal cancer cells”; in series [6], “could not enter the normal colorectal epithelial cells”. Besides, the “inhibition of tumor growth (tumor weight)” value in [4] (setting [11]) and in series [7] (setting [11]) was “could significantly inhibit the growth” in each case. Besides, the “tumor growth inhibition, TKD-50 mg/kg group compared with TKD-25 mg/kg group” value in [4] (intraperitoneal) and in [7] (intraperitoneal) was “had a better effect than the TKD-25 mg/kg group” throughout. For the same molecule, the “inhibition of clone growth” value in series [5] and in series [8] was “could significantly inhibit the growth” in each case. Further, the “inhibition of activation of EGFR downstream signal pathway KRas/Raf/ERK/c-myc (western blot)” value in series [9] is “could significantly inhibit the activation of the EGFR downstream signal pathway KRas/Raf/ERK/c-myc”. Moreover, in series [10] (once every three days, vs PBS), the “changes in body weight” value is “did not show obvious changes in body weight”. In [10], the “pathological analysis of lung, liver, spleen and kidney (HE)” value was “did not damage vital organs including lung, liver, spleen and kidney of the mice”.
